In the nanobody polyreactivity screen of Harvey et al. (2022):

Experiment: yeast display, Sf9 membrane polyspecificity reagent, FACS + sequencing; frameworks hold sequencing errors
Procedure, shortened: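 Galactose-induced (36–48 hours) yeast carrying a synthetic nanobody display library were exposed to 10% biotinylated, detergent-solubilized Sf9 membrane reagent at 4 °C for 1 hour. FACS followed streptavidin microbead enrichment, using low and high (top ~1%) gates for expression (anti-HA) and reagent binding (streptavidin). Colony PCR, MiSeq 2 × 250 sequencing and CDR-length filtering followed. Labels for polyreactivity reflect the gate of origin.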

Sequence | polyreactivity (PSR sort gate)
QVQLVESGGGLVQAGGSLRLSCAASGRIFKFYAMGWYRQAPGKERELVAGITTSGGSTYYADSVKGRFTISRDNAKNTVYLQMNSLKPEDTAVYYCAASRHFARHRGYYFRYDYWGQGTQVTVSS | high polyreactivity
QVQLVESGGGLLQAGGSLRLSCAASGNTFVKYTMGWYRQAPGKERELVAAITWSGGSTSYADSVKGRFTISRDNAKNTVYLQMNSLKPEDTAVYYCAAAWSHSRWDTHDYWGQGTQVTVSS | low polyreactivity
QVQLVESGGGLVQAGGSLRLSCAASGRTFVYYAMGWYRQAPGKERELVATITRGGRTNYADSVKGRFTISRDNAKNTVYLQMNSLKPEDTAVYYCNARYSWWRSRVGSSHRPDGYWGQGTQVTVSS | high polyreactivity
QVQLVESGGGLVQAGGSLRLSCAASGNIFRGYTMGWYRQAPGKERELVATITWNGVSTFYADSVKGRFTISRDNAKNTVYLQMNSLIPEETAVYYCPAYYPSHDYSGVWSDTYEYWGQGTQVTVSS | low polyreactivity
QVQLVESGGGLVQAGCSLRLSCAASGSTFGENAMGWYRQAPGKERELVAVITSDTSTYYADSVKGRFTISRDNAKNTVYLQMNSLKPEDTAVYYCAADWGGLWFWYEYWGQGTQVTVSS | low polyreactivity
QDQLVESGGGLVQAGGSLPLSCAASGRTISAYAMGWYRQAPGKERELVAAISRRGGSTYYADSVKGRFSISRDNAKNTVYLQLNSLKPEETAVYYCAADVYKQYGYYYWGEGTQVTVSS | high polyreactivity
QVQLVESGGGLVQAGGSLRLSCAASGSTFDKNAMGWYRQEPGKERELVAAINNGGGTTYYADSVKGRFTISRDNAKNTVYLQMNSLKPEDTAVYYCAAVGKAYWSDYQYRYYYWGQGTQVTVSS | low polyreactivity
QVQLVESGGGLVQAGGSLRLSCAASGRIFKTYAMGWYRQAPGKERELDAAITASGGRTYYADSVKGRFTISRDNAKNTVYLQMNSLKPEDTAVYYCAADSGNEYDYWGQGTQVTVSS | high polyreactivity
QVQLVESGGGLVQAGGSLRLICAASGSIFSSYAMGWYRQAPGTGRELVASISRRGGSTYYADSVKGRFTISRDNAKNTVYLQMNSLKPEDTAVYYCNASGGPYRYYYWGQGTQVTVSS | low polyreactivity
QVQLVESGGGLVQAGGSLRLSCAASGSIFVYNAMGWYRQAPGKERELVAAITTGGSTNYADSVKGRFTISRDNAKNTVYLQMNSLKPEDTAVYDCNAVHEASYAGVDYWGQGTQVTVSS | low polyreactivity
QVQHVESGGGLDQAGGRLRLSCAASGFTFARNAMGWYRQAPGKDRELVAAINRSGGSTYYADSVKGRFTISRDNAKNTVYLQMNSLKPEDTAVYYCNAPYAQFTSGYDYWGQGTQVTVSS | high polyreactivity
QVQLVESGGGLVQAGGSLRLSCAPSGRISFRYAMGWYRQAPGKERELVAAINRGGITNYADSVKGRFTISRDNAKNTVYLQMNSLKPEDTADYYCAAEGFYDYYNGFDYSGQGTQVTVSS | high polyreactivity
QVQLVESGGGLVQAGGSLRLSCAASGRIFEVYDMGWYRQAPGKERELVAAISESDDNTYYADSVKGRFTISRDNAKNTVYLQMNSLKPEDTAVYYCNADVPGDTGWWGFDYWGQGTQVTVSS | low polyreactivity
QVQLVESGGGLVQAGGSLRLSCAASGRTFVSNDMGWYRQAPGKERELVATISSGASTYYADSVKGRFTISRDNAKNTVYLQMNSLKPEDTAVYYCAAEVLVFGGGYDYWGQGTQVTVSS | low polyreactivity
QVQLVESGGGLVQAGGSLRLSCAASGSTLLYYAKGWYRQAPGKERELVAAISWRGGSTYYADSVKGRFTISRDNAKYTVYLQMNSLKPEDTAVYYCAARSLRLVGPYYYWGQGTQVTVSS | high polyreactivity
QVQLVESGGGFVQAGGSLRLSCAASGFTFKAYAMGLYRQAPGKERELVATINRSGTGTYYADSVKGRFTISRDYAKNTVYLLMNSLKPEDTAVYYCNKRSHHNYYTYDYWGQGTQVTVSS | high polyreactivity
QVQLVESVGGLVQAGGSLRLSCAASGRTFAGNAMGWYRQAPGKEREFVASITASGVNTYYADSVKGRFTISRDNAKNTVYLQMNSLKPEDTAVYYCNKRNRWTPFYTYDYWGQGTQVTVSS | low polyreactivity
QVQLQESGGSLVQAGGSLRLSCSASGNILVLPHGLVSPGAERELVATITGGSITYYADSEKGRFTISRDNAKNTVYLQMNSLKPGDTAVYYCAVINIYHRPHPYWGQGTLVTVSS | high polyreactivity
QVQLVESGGGLVQAGGSLRLSCAPSGSTFSHNAMGWYRQAPGKEREFVAAISWSGGGTYADSVKGRFTISRDYAKNTVYLQMNSLKPEDTAVYYCNKVSYRSSSSSWFDYWGQGTQVTVSS | low polyreactivity
QVQLVESGGGLVQAGGSLRLSCAASGSIFRYYDMGWYRQAPGKERELVAAISDSTGTTYYADSVKGRFTISRDNAKNTVYLQMNSLKPEDTAVYYCTAGYDPRYDYWGQGTQVTVSS | high polyreactivity
QVQLVESGGGLVQAGGSLRLSCAASGFIFRDNAMGWYRQAPGKERELVAAISERGGRTYYADSVKGRFTISRDNAKNTVYLQMNSLKPEDTAVYYCAAKTIYDTRGIRHYYWGQGTQVTVSS | high polyreactivity
QVQLEESGGGLVQAGGSLRLICAASGRTFVYYAMGWYRQAPGKERELVAAISTGGSTNYADSVKGRFTISRDNAKNTVYLQMNSLKTEDTAVYYCAAQYYISISKYDYWGQGTQVTVSS | low polyreactivity
QVQLQESGGGQVQAGGSLRLSCAASGNNSVTGFMGRYRQAPGKERELVASIGIGGTTYYADSVKGRFSISRDNAKNTVYLQMNSLKPEDTAVYYCAARYLYYAYSYWGQGTQVTVSS | low polyreactivity
QVQLVETGGGLVQAGGSLRLSCAASGSTFGYYAMGWYRQAPGKERELVAAITSGGSTYYADSVKGRFTISRDNAKNSVFLQMNSLKPEDTAVYYCAATWYGFAYDYWGQGTQVTVSS | low polyreactivity
QVQLVESGGGLVQAGGSLRLSCAASGSIFDSKAMGWFRQGPGKERELVAAINRSDASTYYADSVKGRFTISRDNAKNTVYLQMNSLKPEDTAVYYCAVEVYVYNVDIYDYWGQGTQVTVSS | low polyreactivity
QVQLVESGGGLVQAGGSLRLSCAASGFIITSYAMGWYRQAPGKERELVAAINGGGSTYYADSVKGRFTISRDNAKNTVYLQMNSLKPEDTAVYYCAAKFRAGRSSYYWGQGTQVTVSS | high polyreactivity
QVQLVESGGGLVQAGGSLRLSCAASGSTFYYYTMGWYRQATGKERELVAAITYRGGSTYADSVKGRFTISRDNAKNTVYLQMNSLKPEDTAVYYCAAVRRHPTHYDYWGQGTQVTVSS | high polyreactivity
QVQLVESGGGLVQAGGSLRLSCAASGSTFVDYAMGWYRQAPGKERELVAGITSGGSTNYADSVKGRFTISRDNAKNTVYLQMNSLKPEDTAVYYCNADPGQDTPGGISDEWYSVWLEYDYWGQGTQVTVSS | low polyreactivity
QVQLVESGGGLVQAGGSLRLSCAASGSILAYNAMGWYRQAPGKERELVASISKSGSSTYADSVKGRFTISRDNAKNTVYLQMNSLNPEDTAVYYCNARYYFSYYAFDYWGQGTQVTVSS | low polyreactivity
QVQLVESGGGLVQAGGSLRFSCAASGSTISSNVMGWYRQAPGKERELVAAITKTGGRTYYADSVKGRFTISRDNAKNTVYLQMNSLKPEDTAFYYCAAKSKPRGTSSDYYYWGQGTQVTVSS | high polyreactivity
